Data published in US20180362616A1, “VARIANTS OF AMYLOID beta-PROTEIN PRECURSOR INHIBITOR DOMAIN” (THE NATIONAL INSTITUTE FOR BIOTECHNOLOGY IN THE NEGEV LTD., priority 2015, published 2018).
Entries after “also recorded” stand apart in the source; their conditions may differ. Read-outs that look alike come from different tables or passages of the source.

Experiments:
[1] = system: AGS gastric cancer cells; assay: Matrigel ThinCerts invasion assay; format: cell-based
Method: The effects of […] (SEQ ID NO: 13) on the invasive behavior of AGS gastric cancer cells was examined. For invasion assays AGS cells were plated in the top chamber of a Matrigel coated […] (Greiner Bio-One, Germany), with an 8 μm pored membrane in 160 μl serum-free Ham's F-12 medium, in triplicate. 1 uM-10 uM of APPI (SEQ ID NO: 13) or a vehicle (50 mM Tris-HCl, 100 mM NaCl, Ph 7.3) in 40 μl were added to each insert. Next, the inserts were placed into the bottom chamber wells of a 24-well plate containing Ham's F-12 with 10% FBS as a chemo-attractant. After 48 hours of incubation, cells remaining on the inserts' top layers were removed by cotton swab scrubbing; Cells on the lower surface of the membrane were fixed in 100%/methanol and stained with Romanowski stain solutions. The cell numbers in 10 random fields (×20) were counted for each chamber and the average value was calculated.

[2] = target: T1, hK6 (Homo sapiens, UniProt Q92876); assay: YSD binding of 50 nM hK6 in presence of active-site small molecule
Method: Next, different concentrations of the polypeptides having SEQ ID Nos: 8, 13, and 14 were tested for their ability to bind 50 nM hK6 in the presence of a small molecule which target and home the serine residue in the active pocket of hK6.

[3] = target: T2, mesotrypsin (Homo sapiens, UniProt P35030); assay: Mesotrypsin inhibition, cleavage of Z-GPR-pNA; format: biochemical; set-up: made in house
T2 sequence (P35030 81-304 limits assumed): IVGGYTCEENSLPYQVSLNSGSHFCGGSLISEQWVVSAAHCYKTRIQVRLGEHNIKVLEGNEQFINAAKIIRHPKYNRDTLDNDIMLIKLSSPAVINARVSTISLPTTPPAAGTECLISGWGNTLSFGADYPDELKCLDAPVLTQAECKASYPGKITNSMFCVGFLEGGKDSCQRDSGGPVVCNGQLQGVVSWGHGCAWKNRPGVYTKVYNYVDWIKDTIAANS

[4] = target: T1, hK6; assay: Surface plasmon resonance, APPI on nickel chip, hK6 analyte; format: binding; settings: SPR
Method: APPIs were immobilized to a SPR nickel chip via the proteins His tag, and hK6 protein served as the analyte. The experiment was conducted at 25° C. APPI concentrations were 0.6125 nM, 1.25 nM, 2.5 nM, 5 nM, and 10 nM.
To this end, APPIs were mounted on a surface Plasmon resonance (SPR) nickel chip by their His tag, and hK6 molecules served as the analyte.

[5] = system: HCT-116 cells; assay: XTT proliferation assay; format: cell-based; settings: 100 nM, 1 μM, 10 μM, 48 hours
Method: (§1) The effect of an APPI variant (SEQ ID NO: 13) on proliferation of gastric cancer cells was evaluated by XTT assay. AGS, HCT-116 and SW-480 cells were plated into 96-well plates in 9600 cells/well in duplicate, and allowed to adhere for 4 hours. Each well was supplemented with 100 nM, 1 μM, or 10 μM […] (SEQ ID NO: 13) or a vehicle (50 mM Tris-HCl, 100 mM NaCl, Ph 7.3), and cells were incubated for 48 hours. Proliferation was measured by XTT following the manufacturer instructions (Biological Industries, Ill.).

[6] = system: AGS cells; assay: XTT proliferation assay; format: cell-based; settings: 100 nM, 1 μM, 10 μM, 48 hours
Method: as §1

[7] = system: SW-480 cells; assay: XTT proliferation assay; format: cell-based; settings: 100 nM, 1 μM, 10 μM, 48 hours
Method: as §1

[8] = target: T2, mesotrypsin; assay: Hydrolysis of APPI variants by mesotrypsin, HPLC time course; format: biochemical; set-up: made in house
[9] = target: T2, mesotrypsin; settings: literature (Knecht et al. 2007; Radisky et al. 2003); cited from earlier work

## SEQ ID NO: 13: APPI variant, EVCSEQAETGPCRALFFRWYFDVTEGKCAPFVYGGCGGNRNNFDTEEYCMAVCGSAI
[1]; 10 μM APPI (b288 prints 10M), 48 hours
  invasive cells per field: 1.46±0.48 cells/field
[1]; 10 μM APPI (b288 prints 10M), 48 hours, vs vehicle
  invasion capacity reduced: 77%
[1]; compared with vehicle
  transmembrane invasion: significantly lower transmembrane invasion capacity; also recorded: inhibits cell invasion
[2]; 50 nM hK6, yeast display
  binding to hK6 compared with SEQ ID NO: 8: higher binding
[2]; high concentrations of small molecule targeting active-site Ser of hK6
  binding to hK6 in presence of small molecule: diminished
[3]; Example 10, read-out: Ki (mesotrypsin activity)
  Ki: 5.38 nM
[4]; 25° C.
  Kd: 0.351 nM
[4]; compared to APPI WT
  improvement in binding to hK6: 22.5 folds
[5]
  proliferation (XTT): did not inhibit proliferation
[6]
  proliferation (XTT): did not inhibit proliferation
[7]
  proliferation (XTT): did not inhibit proliferation

## APPIT11C/M17G/I18F/F34C: APPI variant, EVCSEQAECGPCRAGFSRWYFDVTEGKCAPFCYGGCGGNRNNFDTEEYCMAVCGSAI
[3]; Table 4, read-out: Ki
  Ki: 149 nM
[8]; Table 4
  Kcat: 0.00521 s⁻¹
  turnover time: 192.21 s
[8]; proteolytic stability relative to APPI-WT
  Turnover time (fold): around 2 fold

## bovine pancreatic trypsin inhibitor [BPTI]
[9]
  proteolytic stability toward mesotrypsin: the more stable of the two
